Assay results as given in paper PMC9482650, “Quantitative fragmentomics allow affinity mapping of interactomes” (Nature Communications, 2022).

Experiments:
Test in all cases: holdup assay
Set-up in all cases: key: below the threshold = too weak to quantify, mostly under pKd 3.1 to 4
[1] = target: T1, APBA2_1, Q99767
T1 sequence (Q99767 563-664, limits assumed, looked up): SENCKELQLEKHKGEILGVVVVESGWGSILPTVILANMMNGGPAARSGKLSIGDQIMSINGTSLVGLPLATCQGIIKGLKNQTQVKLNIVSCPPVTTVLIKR

[2] = target: ARHGEF12, Q9NZN5-2
[3] = target: T2, DLG3_1, Q92796
T2 sequence (Q92796 125-227, limits assumed, looked up): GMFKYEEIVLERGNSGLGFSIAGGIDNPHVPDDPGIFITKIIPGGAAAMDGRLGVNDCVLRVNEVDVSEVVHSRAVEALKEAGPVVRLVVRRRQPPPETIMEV

[4] = target: T3, DLG3_2, Q92796
T3 sequence (Q92796 221-321, limits assumed, looked up): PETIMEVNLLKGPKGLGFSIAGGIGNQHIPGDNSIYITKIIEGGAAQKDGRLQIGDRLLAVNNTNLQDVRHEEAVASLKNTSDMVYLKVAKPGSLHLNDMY

[5] = target: T4, DVL3, Q92997
T4 sequence (Q92997 244-331, limits assumed, looked up): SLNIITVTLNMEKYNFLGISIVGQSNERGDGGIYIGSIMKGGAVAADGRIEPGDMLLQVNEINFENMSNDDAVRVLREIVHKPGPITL

[6] = target: T5, FRMPD1, Q5SYB0
T5 sequence (Q5SYB0 52-145, limits assumed, looked up): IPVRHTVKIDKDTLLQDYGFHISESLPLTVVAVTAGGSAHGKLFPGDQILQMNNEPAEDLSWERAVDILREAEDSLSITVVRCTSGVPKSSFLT

[7] = target: FRMPD2_2, Q68DX3
[8] = target: GORASP2, Q9H8Y8
[9] = target: GRID2IP_1, A4D2P6
[10] = target: T6, GRIP1_2, Q9Y3R0
T6 sequence (Q9Y3R0 145-248, limits assumed, looked up): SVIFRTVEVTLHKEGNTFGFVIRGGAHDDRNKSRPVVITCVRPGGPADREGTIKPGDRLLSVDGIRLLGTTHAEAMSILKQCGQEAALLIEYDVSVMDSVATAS

[11] = target: HTRA1, Q92743
[12] = target: HTRA2, O43464
[13] = target: IL16_4, Q14005
[14] = target: Inadl_8, Q8NI35
[15] = target: LAP2, Q96RT1
[16] = target: T7, LIN7A, O14910
T7 sequence (O14910 103-200, limits assumed, looked up): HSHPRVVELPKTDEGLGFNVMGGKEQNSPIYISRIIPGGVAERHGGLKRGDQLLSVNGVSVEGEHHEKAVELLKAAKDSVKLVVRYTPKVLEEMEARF

[17] = target: T8, LIN7B, Q9HAP6
T8 sequence (Q9HAP6 88-185, limits assumed, looked up): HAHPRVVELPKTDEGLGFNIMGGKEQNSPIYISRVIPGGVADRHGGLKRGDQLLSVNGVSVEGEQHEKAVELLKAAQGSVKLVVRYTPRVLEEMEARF

[18] = target: LNX1_3, Q8TBB1
[19] = target: T9, MPP6, Q9NZW5
T9 sequence (Q9NZW5 125-219, limits assumed, looked up): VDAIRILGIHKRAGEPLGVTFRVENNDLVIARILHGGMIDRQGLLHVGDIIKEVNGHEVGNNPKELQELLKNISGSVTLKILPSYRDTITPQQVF

[20] = target: NHERF4_1, Q86UT5-2
[21] = target: T10, PCLO, Q9Y6V0
T10 sequence (Q9Y6V0 4491-4600, limits assumed, looked up): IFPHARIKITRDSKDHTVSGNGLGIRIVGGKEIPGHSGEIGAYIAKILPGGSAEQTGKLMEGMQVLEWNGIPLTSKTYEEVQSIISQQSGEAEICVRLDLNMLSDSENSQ

[22] = target: PDLIM1, O00151
[23] = target: T11, PDZRN3_1, Q9UPQ7
T11 sequence (Q9UPQ7 244-349, limits assumed, looked up): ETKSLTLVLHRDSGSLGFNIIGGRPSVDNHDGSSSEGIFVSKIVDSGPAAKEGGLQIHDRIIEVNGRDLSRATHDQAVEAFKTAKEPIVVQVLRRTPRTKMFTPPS

[24] = target: SCRIB_3, Q14160
[25] = target: T12, SNTG1, Q9NSN8
T12 sequence (Q9NSN8 52-150, limits assumed, looked up): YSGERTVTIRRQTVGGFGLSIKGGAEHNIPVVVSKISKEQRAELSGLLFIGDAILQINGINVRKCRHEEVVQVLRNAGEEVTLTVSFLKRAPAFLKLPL

[26] = target: TJP1_3, Q07157
[27] = plain residues with an end cap or a label only (N-terminal biotin on a linker: ado-ado)
[28] = plain residues with an end cap or a label only (N-terminal biotin on a linker: ahx)

Chain of HTRA1, Q92743 (Q92743 360-477): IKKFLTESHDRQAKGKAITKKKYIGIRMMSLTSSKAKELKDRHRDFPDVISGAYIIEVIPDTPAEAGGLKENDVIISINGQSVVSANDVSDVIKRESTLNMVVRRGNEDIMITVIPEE
Chain of PDLIM1, O00151 (O00151 1-87): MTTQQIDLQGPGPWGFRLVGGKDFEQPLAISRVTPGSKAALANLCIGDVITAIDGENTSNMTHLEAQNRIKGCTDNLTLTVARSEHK
Chain of ARHGEF12, Q9NZN5-2 (Q9NZN5 other isoform, or with tags, fused parts or gaps): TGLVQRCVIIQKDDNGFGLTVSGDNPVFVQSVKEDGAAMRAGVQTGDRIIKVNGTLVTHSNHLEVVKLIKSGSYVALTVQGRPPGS
Chain of NHERF4_1, Q86UT5-2 (Q86UT5 other isoform, or with tags, fused parts or gaps): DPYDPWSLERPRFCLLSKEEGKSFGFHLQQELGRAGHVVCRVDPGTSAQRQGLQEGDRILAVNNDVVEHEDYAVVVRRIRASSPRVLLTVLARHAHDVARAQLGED
Chain of IL16_4, Q14005 (Q14005 1229-1329): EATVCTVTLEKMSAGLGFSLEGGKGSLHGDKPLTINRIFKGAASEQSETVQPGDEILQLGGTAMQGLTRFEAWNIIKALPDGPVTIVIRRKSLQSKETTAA
Chain of FRMPD2_2, Q68DX3 (Q68DX3 944-1038): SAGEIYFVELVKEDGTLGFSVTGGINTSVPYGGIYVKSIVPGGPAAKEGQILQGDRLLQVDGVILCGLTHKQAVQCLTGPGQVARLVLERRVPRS
Chain of LNX1_3, Q8TBB1 (Q8TBB1 500-596): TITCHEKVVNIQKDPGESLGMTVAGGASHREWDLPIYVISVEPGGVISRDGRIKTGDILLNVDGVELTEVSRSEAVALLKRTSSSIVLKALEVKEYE
Chain of SCRIB_3, Q14160 (Q14160 999-1103): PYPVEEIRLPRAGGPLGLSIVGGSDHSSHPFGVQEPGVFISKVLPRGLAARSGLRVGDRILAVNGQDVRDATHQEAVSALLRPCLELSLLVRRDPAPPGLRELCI
Chain of HTRA2, O43464 (O43464 355-458): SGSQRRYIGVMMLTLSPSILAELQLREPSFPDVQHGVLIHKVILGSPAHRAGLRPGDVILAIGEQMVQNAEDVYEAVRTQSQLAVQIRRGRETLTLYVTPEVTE
Chain of TJP1_3, Q07157 (Q07157 416-512): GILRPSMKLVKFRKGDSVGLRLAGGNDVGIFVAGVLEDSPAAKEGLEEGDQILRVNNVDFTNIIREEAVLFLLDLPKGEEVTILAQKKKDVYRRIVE
Chain of LAP2, Q96RT1 (Q96RT1 other isoform, or with tags, fused parts or gaps): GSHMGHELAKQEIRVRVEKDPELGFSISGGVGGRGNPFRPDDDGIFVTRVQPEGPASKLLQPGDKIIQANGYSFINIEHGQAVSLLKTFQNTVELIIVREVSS
Chain of Inadl_8, Q8NI35 (Q8NI35 1425-1530): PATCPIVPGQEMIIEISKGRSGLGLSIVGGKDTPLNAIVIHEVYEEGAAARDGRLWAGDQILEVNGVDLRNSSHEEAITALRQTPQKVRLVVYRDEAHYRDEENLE
Chain of GRID2IP_1, A4D2P6 (A4D2P6 1-87): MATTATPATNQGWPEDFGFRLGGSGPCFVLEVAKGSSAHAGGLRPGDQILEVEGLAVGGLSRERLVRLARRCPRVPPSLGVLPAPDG

TRKRSGEAAV [PFKM, P08237] was tested, and the pKd [1, 27] was “below the threshold”, the pKd [2, 27] was “below the threshold” and the pKd [3, 27] was “below the threshold”. The pKd [4, 27] was “below the threshold”, the pKd [5, 27] was “below the threshold” and the pKd [6, 27] was “below the threshold”. The pKd [7, 27] was “below the threshold”, the pKd [8, 27] was 3.61 and the pKd [9, 27] was “below the threshold”. The pKd [10, 27] was “below the threshold”, the pKd [11, 27] was “below the threshold” and the pKd [12, 27] was “below the threshold”. For the same binder, the pKd [13, 27] was 3.64, the pKd [14, 27] was 3.57 and the pKd [15, 27] was 3.48. For the same binder, the pKd [16, 27] was “below the threshold”, the pKd [17, 27] was “below the threshold” and the pKd [18, 27] was “below the threshold”. The pKd [19, 27] was “below the threshold”, the pKd [20, 27] was “below the threshold” and the pKd [21, 27] was “below the threshold”. The pKd [22, 27] was “below the threshold”, the pKd [23, 27] was “below the threshold” and the pKd [24, 27] was “below the threshold”. The pKd [25, 27] was “below the threshold” and the pKd [26, 27] was “below the threshold”.

In the case of EKQAKGDTEF [CACYBP, Q9HB71], the pKd [1, 28] is reported as “below the threshold”, the pKd [2, 28] is reported as “below the threshold” and the pKd [3, 28] is reported as “below the threshold”. The pKd [4, 28] was “below the threshold”, the pKd [5, 28] was “below the threshold” and the pKd [6, 28] was “below the threshold”. For the same binder, the pKd [7, 28] was “below the threshold”, the pKd [8, 28] was “below the threshold” and the pKd [9, 28] was “below the threshold”. For the same binder, the pKd [10, 28] was “below the threshold”, the pKd [11, 28] was “below the threshold” and the pKd [12, 28] was “below the threshold”. For the same binder, the pKd [13, 28] was “below the threshold”, the pKd [14, 28] was “below the threshold” and the pKd [15, 28] was “below the threshold”. The pKd [16, 28] was “below the threshold”, the pKd [17, 28] was “below the threshold” and the pKd [18, 28] was “below the threshold”. For the same binder, the pKd [19, 28] was “below the threshold”, the pKd [20, 28] was “below the threshold” and the pKd [21, 28] was “below the threshold”. The pKd [22, 28] was “below the threshold”, the pKd [23, 28] was “below the threshold” and the pKd [24, 28] was “below the threshold”. For the same binder, the pKd [25, 28] was “below the threshold” and the pKd [26, 28] was “below the threshold”.

SLNANEVEWF [RNF130, Q86XS8] was tested, and the pKd [1, 27] was 3.61, the pKd [2, 27] was “below the threshold” and the pKd [3, 27] was “below the threshold”. For the same binder, the pKd [4, 27] was 4.22, the pKd [5, 27] was 4.48 and the pKd [6, 27] was “below the threshold”. For the same binder, the pKd [7, 27] was 3.59, the pKd [8, 27] was 4.7 and the pKd [9, 27] was “below the threshold”. It also gave a pKd [10, 27] of 3.68, a pKd [11, 27] of 4.49 and a pKd [12, 27] of 3.51. The pKd [13, 27] was “below the threshold”, the pKd [14, 27] was “below the threshold” and the pKd [15, 27] was “below the threshold”. The pKd [16, 27] was “below the threshold”, the pKd [17, 27] was 3.89 and the pKd [18, 27] was “below the threshold”. For the same binder, the pKd [19, 27] was 4.05, the pKd [20, 27] was 3.89 and the pKd [21, 27] was “below the threshold”. For the same binder, the pKd [22, 27] was “below the threshold”, the pKd [23, 27] was “below the threshold” and the pKd [24, 27] was 3.96. For the same binder, the pKd [25, 27] was “below the threshold” and the pKd [26, 27] was “below the threshold”.

In the case of VLYPREGTEV [FOXI1, Q12951], the pKd [1, 27] is reported as “below the threshold”, the pKd [2, 27] is reported as 4.08 and the pKd [3, 27] is reported as 4.03. For the same binder, the pKd [4, 27] was 4.59, the pKd [5, 27] was “below the threshold” and the pKd [6, 27] was “below the threshold”. The pKd [7, 27] was 3.54, the pKd [8, 27] was “below the threshold” and the pKd [9, 27] was “below the threshold”. For the same binder, the pKd [10, 27] was “below the threshold”, the pKd [11, 27] was 4.64 and the pKd [12, 27] was “below the threshold”. For the same binder, the pKd [13, 27] was “below the threshold”, the pKd [14, 27] was 3.82 and the pKd [15, 27] was 3.52. For the same binder, the pKd [16, 27] was “below the threshold”, the pKd [17, 27] was “below the threshold” and the pKd [18, 27] was “below the threshold”. For the same binder, the pKd [19, 27] was “below the threshold”, the pKd [20, 27] was 3.71 and the pKd [21, 27] was “below the threshold”. For the same binder, the pKd [22, 27] was 3.81, the pKd [23, 27] was 4.46 and the pKd [24, 27] was 4.36. For the same binder, the pKd [25, 27] was 4.13 and the pKd [26, 27] was “below the threshold”.

For MHIQEKGFHV [EPHA6, Q9UF33], the pKd [1, 27] was “below the threshold”, the pKd [2, 27] was “below the threshold” and the pKd [3, 27] was “below the threshold”. The pKd [4, 27] was “below the threshold”, the pKd [5, 27] was “below the threshold” and the pKd [6, 27] was “below the threshold”. The pKd [7, 27] was “below the threshold”, the pKd [8, 27] was 3.62 and the pKd [9, 27] was “below the threshold”. For the same binder, the pKd [10, 27] was “below the threshold”, the pKd [11, 27] was 4.61 and the pKd [12, 27] was “below the threshold”. For the same binder, the pKd [13, 27] was 3.55, the pKd [14, 27] was “below the threshold” and the pKd [15, 27] was “below the threshold”. For the same binder, the pKd [16, 27] was “below the threshold”, the pKd [17, 27] was “below the threshold” and the pKd [18, 27] was “below the threshold”. The pKd [19, 27] was “below the threshold”, the pKd [20, 27] was “below the threshold” and the pKd [21, 27] was “below the threshold”. For the same binder, the pKd [22, 27] was “below the threshold”, the pKd [23, 27] was “below the threshold” and the pKd [24, 27] was “below the threshold”. For the same binder, the pKd [25, 27] was “below the threshold” and the pKd [26, 27] was “below the threshold”.
